Experimental findings from patent US20240294638A1 are described below.

Assay [1] concerns the target human NKG2A and human CD94 expressed on transiently transfected CHO-S cells (human) (UniProt Q13241). Kind of assay: blocking of PE-conjugated HLA-E pentamer binding to transiently transfected CHO-S cells, flow cytometry (percentage binding) [panel A hNKG2A]. For orientation: A flow cytometer gives signals particle by particle.
Assay [2] concerns the target cynomolgus NKG2A and cynomolgus CD94 expressed on transiently transfected CHO-S cells (cynomolgus) (UniProt Q68VD2). Kind of assay: blocking of PE-conjugated HLA-E pentamer binding to transiently transfected CHO-S cells, flow cytometry (percentage binding) [panel B cNKG2A].
In assay [3] the target is cynomolgus NKG2C and cynomolgus CD94 expressed on transiently transfected CHO-S cells (cynomolgus). Kind of assay: blocking of PE-conjugated HLA-E pentamer binding to transiently transfected CHO-S cells, flow cytometry (percentage binding) [cont.), panel D cNKG2C].
Assay [4] deals with NKG2A on primary human NK cells (human) (UniProt P26715). Briefly: cell-based or functional assay.
Chain of NKG2A on primary human NK cells (human) (P26715 whole entry): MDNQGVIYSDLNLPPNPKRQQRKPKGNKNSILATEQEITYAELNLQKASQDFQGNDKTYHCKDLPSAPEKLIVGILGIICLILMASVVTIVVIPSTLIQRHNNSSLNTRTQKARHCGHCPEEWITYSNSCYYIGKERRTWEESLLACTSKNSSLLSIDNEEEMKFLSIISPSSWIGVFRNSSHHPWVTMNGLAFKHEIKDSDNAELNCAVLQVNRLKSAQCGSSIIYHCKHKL
Assay [5] addresses human NKG2A M189I / human CD94 heterodimer on CHO-S cells (human) (UniProt Q13241). Kind of assay: flow cytometry, CHO-S cells transiently transfected with NKG2A variant and CD94, AF647 goat anti-human IgG secondary (MFI) [cont.), panel monalizumab analogue (IgG4].
In another assay the target is I168S (Homo sapiens). The description is as above.
Chain of I168S (Homo sapiens) (P26715 whole entry I168S): as the sequence (P26715 whole entry) above, with I168S counted along it
Assay [6] has as its target human NKG2A and human CD94 expressed on transiently transfected CHO-S cells (human) (UniProt Q13241). The assay is described as above.
For assay [7], the target named is human NKG2A S167A+I168S+S170L / human CD94 heterodimer on CHO-S cells (human) (UniProt Q13241). Described as above.
Chain of human NKG2A S167A+I168S+S170L / human CD94 heterodimer on CHO-S cells (human) (chain, as listed by the source S167A I168S S170L S167A I168S S170L, chain 1 of 2): as the sequence (P26715 whole entry) above, with S167A, I168S, S170L counted along it
Chain of human NKG2A S167A+I168S+S170L / human CD94 heterodimer on CHO-S cells (human) (Q13241 whole entry, chain 2 of 2): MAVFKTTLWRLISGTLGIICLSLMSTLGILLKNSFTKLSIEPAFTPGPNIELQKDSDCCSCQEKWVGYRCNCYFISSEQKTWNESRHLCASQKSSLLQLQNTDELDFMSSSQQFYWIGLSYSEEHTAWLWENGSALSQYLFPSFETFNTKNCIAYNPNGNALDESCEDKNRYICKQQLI
The target of assay [8] is human NKG2A S170L / human CD94 heterodimer on CHO-S cells (human) (UniProt Q13241). The description is as above.
Chain of human NKG2A S170L / human CD94 heterodimer on CHO-S cells (human) (chain, as listed by the source S170L S170L, chain 1 of 2): as the sequence (P26715 whole entry) above, with S170L counted along it
Chain of human NKG2A S170L / human CD94 heterodimer on CHO-S cells (human) (Q13241 whole entry, chain 2 of 2): as the sequence (Q13241 whole entry, chain 2 of 2) above
The target in assay [9] is human NKG2A and human CD94 expressed on transiently transfected CHO-S cells (human) (UniProt Q13241). Kind of assay: flow cytometry, transiently transfected CHO-S cells, AF647 goat anti-human IgG secondary (MFI) [cont.), panel monalizumab analogue (IgG1-LALA].
Chain of human NKG2A and human CD94 expressed on transiently transfected CHO-S cells (human) (chain, as listed by the source, chain 1 of 2): as the sequence (P26715 whole entry) above
Chain of human NKG2A and human CD94 expressed on transiently transfected CHO-S cells (human) (Q13241 whole entry, chain 2 of 2): as the sequence (Q13241 whole entry, chain 2 of 2) above
Assay [10] deals with cynomolgus NKG2C and cynomolgus CD94 expressed on transiently transfected CHO-S cells (cynomolgus). Described as above.
The target of assay [11] is cynomolgus NKG2A and cynomolgus CD94 expressed on transiently transfected CHO-S cells (cynomolgus) (UniProt Q68VD2). Described as above.

Chain of human NKG2A M189I / human CD94 heterodimer on CHO-S cells (human) (chain, as listed by the source M189I M189I, chain 1 of 2): as the sequence (P26715 whole entry) above, with M189I counted along it
Chain of human NKG2A M189I / human CD94 heterodimer on CHO-S cells (human) (Q13241 whole entry, chain 2 of 2): as the sequence (Q13241 whole entry, chain 2 of 2) above

In general, EC50 (read off the curve) refers to the midpoint of the concentration-response curve. Low readings indicate greater potency, high ones weaker potency. Regarding “Monalizumab Analogue (IgG4-S228P) (antibody)”, the IC50 (read off the curve) in assay [1] was 200 ng/mL; in [2], 500 ng/mL; in assay [3], 800 ng/mL. In addition, in assay [4], the EC50 (ug/mL) of induced NK cell cytotoxicity, median (n = 6) stood at 0.89 µg/mL. Besides, the 50% effective concentration (EC50 (read off the curve)) in assay [5] came out at 2 ng/mL; with I168S (Homo sapiens) it was 2 ng/mL; in assay [6] it was 2 ng/mL; in assay [7], 3 ng/mL; in assay [8], 2 ng/mL.
Consider “monalizumab analogue (IgG1-LALA) (antibody)”, for which the EC50 (read off the curve) came to 8 ng/mL in assay [9], 20 ng/mL in [10] and 10 ng/mL in assay [11].
